According to the DeepSol protein solubility set:

Assay: soluble on expression in E. coli; label from the status in PepcDB or PDB records

Sequence: MRTFTWRKGSLSKVNTCYVLAGGKSKRFGEDKLLYEIKGKKVIERVYETAKSVFKEVYIVAKDREKFSFLNAPVVLDEFEESASIIGLYTALKHAKEENVFVLSGDLPLMKKETVLYVLENFKEPVSVAKTEKLHTLVGVYSKKLLEKIEERIKKGDYRIWALLKDVGYNEVEIPEELRYTLLNMNTKEDLKRILAIENHY
- soluble on expression in E. coli: soluble

Sequence: MSKTTLVERCYKYIMSNEKNWSPYTVINRKSWVKNYIEPFFKDTKLIDINPVLIQTFINTTFNNCTFSSSKIRYRFISSVLKEAYRLREINENPCDFVKLPLEHHHHHH
- soluble on expression in E. coli: soluble

Sequence: MTVQTKTKGLAWQEKPLSDNERLKTESNFLRGTILDDLKDPLTGGFKGDNFQLIRFHGMYEQDDRDIRAERAEAKLEPLKFM
- soluble on expression in E. coli: not soluble

Sequence: GSHMDLETLRARREAVLSLCARHGAVRVRVFGSVARGEAREDSDLDLLVAFEEGRTLLDHARLKLALEGLLGVRVDIVSERGLAPRLREQVLREAIPL
- soluble on expression in E. coli: soluble

Sequence: LKPKILTASRKIKIKAGFTHNLEVDFIGAPDPTATWTVGDSGAALAPELLVDAKSSTTSIFFPSAKRADSGNYKLKVKNELGEDEAIFEVIVQ
- soluble on expression in E. coli: soluble

Sequence: MGSDKIHHHHHHMEFDQAKKIVVATIIDQQGLSDRLVGCKAIITSTGRLSYSIPLAWVRERLEVLIRESLYRGSFEVISLANPNDTRQKATLMIDPYLPPQELIILGGGHIAQPLAKIGKLLGYQVAVLDDRPEFVSKDRFPEADKTICCSFDTVENSFDLGPQSNVVIVTRGHQHDLLCLRQMLKYPLAYLGMIGSRRKVAIIRERLLEEGLAVKKLNSVYMPIGLDIGAQTPAEIAVSITAELIKVRRGGKAASIKNIDKKNNDNEAGVFNLGELPSTIDQEILQLTLQAAINHVPAALATVVSTKGSTPRKAGAHMLVWADGRSLGTVGGGQGEAKVRAEAFKIINTSQPILYRISMDAANAAMEGMICGGSMEVFIEPVNGFAQVSGGGGIL
- soluble on expression in E. coli: not soluble

Sequence: LYLAGIGQYAALLEAGFARARSAEETVRLLVTSYIDWVVANPDWARFILHSRGRVEAGELGERLRADNQAHFARIHAALAGYRAEGLFREMPDDCFASVVIGPAHDLARQWLAGRTRVALADCRELLAQVAWDSVRAA
- soluble on expression in E. coli: soluble

Sequence: SSNFSSERIRYAKWFLEHGFNIIPIDPESKKPVLKEWQKYSHEMPSDEEKQRFLKMIEEGYNYAIPGGQKGLVILDFESKEKLKAWIGESALEELCRKTLCTNTVHGGIHIYVLSNDIPPHKINPLFEENGKGIIDLQSYNSYVLGLGSCVNHLHCTTDKCPWKEQNYTTCYTLYNELKEISKVDLKSLLRFLAEKGKRLGITLSKTAKEWLEGKKEEEDTVVEFEELRKELVKRDSGKPVEKIKEEICTKSPPKLIKEIICENKTYADVNIDRSRGDWHVILYLMKHGVTDPDKILELLPRDSKAKENEKWNTQKYFVITLSKAWSVVKKYLEA
- soluble on expression in E. coli: soluble

Sequence: MGSDKIHHHHHHMIDFIISIDDCAVELDSRQSWKIRYPLSTILFLVFVCQLAGIETWKEMEDFIEMNEPLFATYVDLSEGCPSHDTLERVISLVNSDRLKELKVQFEQSLTSLDAVHQLISVDGKTIRGNRGKNQKPVHIVTAYDGGHHLSLGQVAVEEKSNEIVAIPQLLRTIDIRKSIVTIDAMGTQTAIVDTIIKGKADYCLAVKGNQETLYDDIALYFSDVNLLEELQENAQYYQTVEKSRGQIEVREYWVSSDIKWLCQNHPKWHKLRGIGMTRNTIDKDGQLSQENRYFIFSFKPDVLTFANCVRGHWQIESMHWLLDVVYHEDHHQTLDKRAAFNLNLIRKMCLYFLKVMVFPKKDLSYRRKQRYISVHLEDYLVQLFGERG
- soluble on expression in E. coli: not soluble

Sequence: MDWRWWKIAYEELTEKQQRFVDKYITTFNATESAKQAGYSEKSAYSQGQRLLKNVEIQKAMKERFLEAKDTKGDRIQDVAETLEQDTSIARGEIQISEFKETDMLTGQVVIHTKREYTPSHEEQGRARDRIYKVNGAYSEKRELEHSGTVVFANEDNIPD
- soluble on expression in E. coli: not soluble

Sequence: MILGICGSPRKQATEHVLERALSMLEDDGLETEFFTVRGKNISPCRHCDYCLRNKECVLKDDMFPLYELLRRAAGIIIATPVYNGGVSAQIKAIMDRCRALGAEDYDSLRGKVGMGIAVGGDRCGGQEPALMQIHTFYILNGVIPVSGGSFGANLGACFWSRDTLEVLKRTHMDSKPSKRPWACLKGSWTLKDPEILFYSEFILEHHHHHH
- soluble on expression in E. coli: not soluble

Sequence: PKYTKSVLKKGDKTNFPKKGDVVHCWYTGTLQDGTVFDTNIQTSAKKKKNAKPLSFKVGVGKVIRGWDEALLTMSKGEKARLEIEPEWAYGKKGQPDAKIPPNAKLTFEVELVDID
- soluble on expression in E. coli: soluble

Sequence: IDEKGRVIIAGIGRFGQVVNRLVRMSGIETVVLDHDMAAVQIMRRFGVKGFFGDPTRPELLQAAGLAEATVLVVAVDDRENAIKIVRYARQVRPDLHIVSRARDRVHVYELYQAGADDIVRETFDSSIRAGRYVLENMGF
- soluble on expression in E. coli: not soluble

Sequence: MNVFNPAQFRAQFPALQDAGVYLDSAATALKPEAVVEATQQFYSLSAGNVHRSQFAEAQRLTARYEAAREKVAQLLNAPDDKTIVWTRGTTESINMVAQCYARPRLQPGDEIIVSVAEHHANLVPWLMVAQQTGAKVVKLPLNAQRLPDVDLLPELITPRSRILALGQMSNVTGGCPDLARAITFAHSAGMVVMVDGAQGAVHFPADVQQLDIDFYAFSGHKLYGPTGIGVLYGKSELLEAMSPWLGGGKMVHEVSFDGFTTQSAPWKLEAGTPNVAGVIGLSAALEWLADYDINQAESWSRSLATLAEDALAKRPGFRSFRCQDSSLLAFDFAGVHHSDMVTLLAEYGIALRAGQHCAQPLLAELGVTGTLRASFAPYNTKSDVDALVNAVDRALELLVD
- soluble on expression in E. coli: soluble

Sequence: MGSDKIHHHHHHMLEIVAFRGDEYGLSARILADFLDEFRIHEMSPDNFNGKEEIENDFIIVCNPKLLTENFLRQAYEYSRDRGIYFGVISALSIDLLREKLANYQEQISLDPQQYLIILRKENKSIKHRLNAEVFTRYESTVDNFDRVKHKKLCLSMVIDGNRRHLHLSDGKICGINRDIPLEEIYRYFPDCQNCEYERVYAQDVQAECIFMDSCSSTLISTSEKGEYINVGMNFLKNAKVLISSYRPKQGYNSEALLFHHLISHGFEAGEVLYILNTNSYNHCSDYLPYILYGFPNAKVTIPEKLEVDRLRMGKSEIVLEIDRIAGMRLLEIHAGEDILNEVLKRQFYVFSSDEIRKDVFYSVIPYPLKNSIKLFLYSWEEVNGPLRIVFGVGKRLREDVYSKRYFNMRKLELLGFRHKKIQNQVHDYFSKINEQTEVLDEANRNLKNFDLHRLSKNLSAVEERIYNLLADHLLSQNPKFFIEVYGENMTVRCAEEDLHKTIRCPYCGNYLSIKESENTLVPMKRYSGFCSNCHNVFDTESVHPPKYPEIVLVHEQPDRKIFYVKVWNENAHTTNNLVCFNLWCENRSEMENIYLSRDFQVFTLEPGGEEKFEVEVALKRTDQRINKTYCLYVYWFEDFNLSVSTYTFRLKNV
- soluble on expression in E. coli: not soluble

Sequence: MAHHHHHHMSDAQTVQTLVLWNGEWPYVKRGVSEVRAVAAGVIASANALVDVPAYLARARKYTAAADDFVTAQSARASSTLESHQWVVPAAGIALASVYVVVRSAPWGGMKMMRNGLVTAGALTAFMYPREIVHQIDRAMPFQAPASISEQKNES
- soluble on expression in E. coli: not soluble

Sequence: MQGQKIPATVITGFLGSGKTTMIRNLLENANGKRIALIINEFGDLGVDGGILKRCGIETCREEDVIELNNGCICCTVADDFIPTMTKLLDREDRPDHIVIETSGLALPQPLVAAFNWPEIKTQVTVDGVVTVIDAAAVAEGRFADDHDKVDAQRAADESLDHESPLEELFEDQIHAADLIVLNKADLIDAAKLDSVKADVAERSSRRVNMVPASFGKLGADVLLGLGVGTEDDIVNRRSHHEAHHGDGHEHDHDEFESFVVEAGSVADPKAFAEKLKAVIAEHDILRLKGFVDVPGKPMRLVVQAVGPRIEHYFDRPWGKDETRSTRLVVIGLHDIDEAAIAQAVKDADLEHHHHHH
- soluble on expression in E. coli: not soluble

Sequence: MGHIIDISKWNGDINWSIAKQHIDFIIARVQDGSNYVDPLYKGYVQAMKQHGIPFGNYAFCRFVSIADAKKEAQDFWNRGDKSATVWVADVEVKTMNDMRAGTQAFIDELYRLGAKKVGLYVGHHMYTPFGMANVKSDFVWIPRYGGNKPAYPCDIWQYTETGNVPGIGKCDLNSLIGNKSLSWFTESATQESVQAPTQNIIQSGAFSPYETPDVTGALTSLKMTAKFILKPDGLTYFISDPTSDAQLNAMKEYLDRKGWWYEVK
- soluble on expression in E. coli: not soluble

Sequence: MGSDKIHHHHHHMILPDRKQILDRELIRRIADTTISGSGHSDGLSEYASIRKAAFAFVESAVLGDQAYSPIENAELAFIVWILAALDENIITARTIIKARDTVYYYLRLVEHYEDLEEFGSRLGIEISVFGEQIGKDHLYRIGVADFATYASRVTGSKYRLSNQIVREGYVYVDEDVMAKVLREAFVSFMFDTLDQIRYYDAIETIKSVLDDLEKIRESYRKAHNVRMIAGKGDASMFPPCMKEIIKNLESGVNVSHMGRLALASFLHKAGYSEDEIVPYFRNAPDFDENITRYQIKHISGEISGTEYTPPKCETMRSNHLCYMDDDPLCHREWMKHPLTYYEVKRRNRKIR
- soluble on expression in E. coli: not soluble

Sequence: KRKTKEQLAILKSFFLQCQWARREDYQKLEQITGLPRPEIIQWFGDTRYALKHGQLKWFRDNA
- soluble on expression in E. coli: soluble

Sequence: MAVKKIAIFGATGQTGLTTLAQAVQAGYEVTVLVRDSSRLPSEGPRPAHVVVGDVLQAADVDKTVAGQDAVIVLLGTRNDLSPTTVMSEGARNIVAAMKAHGVDKVVACTSAFLLWDPTKVPPRLQAVTDDHIRMHKVLRESGLKYVAVMPPHIGDQPLTGAYTVTLDGRGPSRVISKHDLGHFMLRCLTTDEYDGHSTYPSHQYQ
- soluble on expression in E. coli: soluble

Sequence: MSLGRKIKKETMIFPRYHQLRAVRELEDAARTEGPGHNYLVEHSAGSGKSNTIGWLAHRLASLHNESDHKVFDSVIVITDRRVLDRQLQDTIYQFEHRQGVVQKIDEDSRQLAEALTNSVPIIISTLQKFPFVARQLARMAEERREGADGILPTRRCAVIIDEAHSSQSGETATDLKEVLGGHVLREEAARYAVDEGVDNLDELYRSMAKRGRQTNLSFFAFTATPKHKTLAVFGRDEAGKAGQPFHRYTMSQAIEEGFIMDVLKNYTTYATYYKLVKASEDDPNVERKQAAKALARFMRLHPYNIAQKTEVMVEHFNAVTRHKVGGKAKAMVVTGSRLEAVRYKLAFDAYIREKGYSWIKTLVAFSGEVVDDELPGKTWTEVGMNGGIKEGVLPEKFDSSEYQVLLVAEKYQTGYDQPLLHTMYVDKRLAGIQAVQTLSRLNRMHPLKEDTFVLDFVNDRQEIKEAFKQYHEGAEMGEEADPNQMYAIKAELDASGIYLLEEMQRFIGIYFKPKQRQSPADHQAMNAALDPAVDRFRAVQEEDEEQAELWRGKLSAFRNLYAFLSQVAPYQDSDLERLYTFLRFLSPKLPKRTTGQRYSFDDEVRLEYYRLQKISEGSISLRDGKAELLDGPGEVGSGARHDEDVPLSSLIDVINERFGTDFTDADQLFFDQIIEAAMEDGSLLEAAAVNPEEKFALLFAGLLETLFIERMEQNEDIFARFMNERDFQSLVSKWISGKVYARLREGHHHHHH
- soluble on expression in E. coli: not soluble
